Publication PMC4342241, “Antimicrobial Characterization of Site-Directed Mutagenesis of Porcine Beta Defensin 2” (PLoS ONE, 2015)
Where no end group is shown, it is not given here.

How the values were obtained:
porcine erythrocytes = assay: Hemolytic activity assay (release of hemoglobin); type: cell-based; conditions: 0~80 μg/ml, 37°C for 1 h
Description: The release of hemoglobin from porcine erythrocytes was used as a measure for the hemolytic activity of defensin as described before. 1mL fresh porcine blood was centrifuged at 1800 g for 10 min for collecting erythrocytes in the presence of heparin to prevent coagulation. The pellet was washed three times and re-suspended in saline solution at the proportion of 1:9. Subsequently, 100 μL erythrocyte solution was mixed with 100 μL of individual mutated defensins (final concentrations were 0~80 μg/ml) in polypropylene 96-well microtiter plates. After incubation at 37°C for 1 h, the plate was centrifuged at 1800 g for 5 min. 100 μL supernatant was transferred to a new 96-well plate separately and the absorbance was measured at 450 nm (reference 630 nm) using a microplate reader. The hemolysis ratio was calculated by comparison with the control samples containing no peptide or 1% Trition-100 [24–25].
Different concentrations of mutant pBD2 protein (100 μL) were separately incubated with erythrocytes (100 μL) at 37°C for 1 h. Less than 10% hemolysis ratio was found at all different concentrations of mpBD2-1~8 (data not shown). No significant differences were observed among different concentrations or among different mutants (P > 0.05).

[1] = cited from earlier work
Text: In this report, eight amino acids of pBD2 were selected for substitution by arginine or lysine based on rational analysis. It was hypothesized that the major factor defining the antimicrobial activities of defensins was their cationicity or isoelectric point (pI) values. Indeed, the antimicrobial activities of defensins increased with their net charges. Harder et al reported that human beta defensin 3 (hBD3) had the strongest activity among hBD1, 2 and 3, because it had the most net positive charges (hBD1, 2 and 3 has +5, +6, and +11 net pos ...

Substance: Porcine β defensin 2 [pBD2]
- hemolytic activity (in words) (porcine erythrocytes): low hemolytic activities

Substance: hBD2: human beta defensin 2 (GIGDPVTCLKSGAICHPVFCPRRYKQIGTCGLPGTKCCKKP; ends and bridges not checked; cysteine pairing not given here; UniProt O15263 24-64, looked up)
- net positive charges [1]: +6

Substance: human beta defensin 3 (GIINTLQKYYCRVRGGRCAVLSCLPKEEQIGKCSTRGRKCCRRKK; ends and bridges not checked; cysteine pairing not given here; UniProt P81534 23-67, looked up) [hBD3]
- net positive charges [1]: +11

Substance: human β defensin 1 (DHYNCVSSGGQCLYSACPIFTKIQGTCYRGKAKCCK; ends and bridges not checked; cysteine pairing not given here; UniProt P60022 33-68, looked up) [hBD1]
- net positive charges [1]: +5
